Source: the DeepSol protein solubility set

Test: soluble on expression in E. coli; label from the status in PepcDB or PDB records

| Sequence | soluble on expression in E. coli |
| --- | --- |
| MRRLLLLVILFGCMSVINLAAGCNAQICTCPGGGYVTYGQYCPVNTPSYSAPPDAPPVDMYYFILDIKNNSYQLVDLKTKNFLTALDRSLSCDRSTQVCTVVSIREYLAVVVSEDNRLFIGKADAFYKGTGKKAEKAAIDDCKKGKEANGNGVMGDGIKGKKCRLIRLFSPNFKLENIETKQKYDLKVTGSL | not soluble |
| MTNVCDLTDRKCKPCEGGVPPLEMEEAEKLLKQLEQGWQLADNKISRTFSFKNYYQTMAFVNAIAWVSHREDHHPDMMVGYDWCRVEYMTHAIGGLSENDFICAAKVDMLFKS | not soluble |
| MKPTTRSASKRANAESSGVNQPEKKSRIPETEIVEDPLEIEVPPASADGTDNKSFSENEYDDDHSSSSDEESDDEYVVETHKSSMVDAAESSEGERPDERIVRELEQKIARGLKNDRILKKKKKALDGEVSDTEDVVCEYEPQAMPKQRRRRLYRRKMTRPQGVPKRRRIKRPDLELADDYTCDTFAEQGLTLKSLTSDIKQDDPEVDWKAMRRMGIGIRSTKRDEINSDEDEADIISHSFSFYQTRNSKEQVAQAVELNMNPFSEKIASYNAPKSVHGYSRSSIQNQHSGFIDKNDIKYPDELLWQEPFTHLVFFQSTFNAHESSIKFLNNVANSKKQERDSKLMKEIRERIKQKSLGHVDVPIDYTNVESTSEQPSTIDQYSLPDLTSQCDEGTIKEEEDFDYLMVDAEF | not soluble |
| MGSDKIHHHHHHMNVLIVSSSEGITLSLLRCLGLLNIKSHVISVWKSSGSSRFSRFCKNYISSFITESSQGAENIADVINDYCKQQKIDIIIPSGLLGTFLVALIKEKLSYSSVFPINDADKIYNLNNKWQFYHLLRQHNIPTPKTILIETPEQIKLLNLNFPVMVKPLDRGNGYGVKKIDSIVDLHGYISNASQINNLPILVQEYVFGYDILLNVLAENGKLIAWTINRRVPYFFEFFQDENILEIAHKIIDSCNYTGVANFDIRFDERSNSVKVIECNPRFWASFGASVSYGIDFVNLGILLAQGQKLPDNLKKEVTCTEPEKIPYPSPSQFLKGLLLAKYPFAAMKKISSDLAWQSILDPLPNIYEKIWNRLGIVNTHDGVMLNKLLSNSIRVKI | not soluble |
| MAHHHHHHMLQINAFKLVRATPFLLKRTGKPADTPDYKQVYLPYDAAPTERELERERRRFKQAHHGRMEHRKLVEVKEVPLNVYTYGKEGMSLPIAIFKDQKDPVIGPEWTYPGIYENKIAAQHWYTEELFDKESKEAFESPWQQQILDNQVKRRMAKVMFRMRQVNMKAVDLFQKERGSSRRSGGAGE | not soluble |
| SAPPLLSLPLCILPPGSGSPRLVCYCERDSGGDGDRDDFNLYVTDAAELWSTCFSPDSLARLKARFGLSGAEDIHSRFRAACQQQAVTVSLQEDRALITLSGDTPALAFDLSKVPSPEAAPRLQALTLSLAEHVCNLERRLAAAEETITSPKKNTQPAGTQFLPELDHQRGSSGPGVRRRCPGESLINPGFKSKKPAAGVDFDET | soluble |
| MGSDKIHHHHHHMMTEMQQRAQLHRQIWKIADEVRGAVDGWDFKQYVLGTLFYRFISENFTDYMQAGDSSIDYAAMPDSIITPEIKDDAVKVKGYFIYPGQLFCNIAAEAHQNEELNTKLKEIFTAIESSASGYPSEQGIKGLFDDFDTTSSRLGSTVADKNKRLAAVLKGVAELDFGNFEDHRIDLFGDAYEYLISNYAANAGKSGGEFFTPQSVSKLIARLAVHGQEKVNKIYDPACGSGSLLLQAKKQFDEHIIEEGFFGQEINHTTYNLARMNMFLHNVNYNKFHIELGDTLTNPKLKDSKPFDAVVSNPPYSIDWIGSDDPTLINDDRFAPAGVLAPKSKADFAFILHALNYLSGRGRAAIVSFPGIFYRGGAEQKIRQYLVEGNYVETVIALAPNLFYGTCIAVNILVLSKHKDNTDIQFIDASGFFKKETNNNVLTEEHIAEIVKLFADKADVPHIAQNAAQQTVKDNGYNLAVSSYVEAEDTREVIDIRQLNAEISETVAKIERLRREIDEVIAEIET | not soluble |
| MDSGRLAVIALGGNAIAGPGMDVSVESQTAAVKRASSIIADVLADGWRSVITHGNGPQVGYLSEAFEALPPERPRQPLYIATAMTQAWIGLLLKHSLEEELRRRGLNVLVPVVISRVLVDVSDPSFNNPSKPVGPIYGREEAEELSRRYGWVFKRDPRGGFRRVVPSPRPVSIVDRDLIAEASAESPAVVALGGGGVPVVERPGGVLEPVEAVVDKDLASSLLATQLNADLLVILTDVPGVAVNYGREGERWLRRAAASELKKYLREGHFPPGSMGPKVEAAISFVERTGKPAVIGSLEEARQVLSLQAGTVVMLG | soluble |
| MSLDAAAATLPRKSGSVDRLVRLAEADMAGVNRLITDRMQSDVAIIPALAEHLIAAGGKRLRPLMTVAAARLAGADNDHFQKLAAAVEFIHTATLLHDDVVDGSQLRRGKVAAHLIWGGAQSVLVGDFLFARAFELMVETNSMKALEILARASRVIAEGEVLQLMRSHDLNLSQAVYLEIIQAKTAELFAAASEAGAVSAGVDVAESEALRDYGLNLGLAFQLADDALDYGGATETLGKNAGDDFREGKATLPLLLAIARSGPREAEFWERAIGRREQTEADFRRARELIIGSGALDATLDLAADYADKAKAALAMFPANDWREALEELADFAVSRRAEGHHHHHH | soluble |
| MANKKIDHREEAIELLKQDAKRILQLIKVQMDNLTLPQCPAYEEVLDTQMYGLSREINFATRLGLIEPEEGKKLISTLEKELSALHELSMSKK | not soluble |
| MRAASTSKPVGAHEETGHLGGAHSTYVSSAQVTNAEHENELQVVDLPRAPPSLSKAVTYFYITGFGRFALMEDNPTERVVLRLREILQDPGRVQMLHERLVRIVDLRILEVSAAAAHETLAEMKTQCLQMRQKPNISSDGRNRTVCFLHLGVDASADGFLVERSAVNEALFRFPDERGWQPTTPIPIVRGAQLGARYELDGEALASLCERTESLLNEWGRTNWTVRVNDDAGRFLCNYLFYLSAFEGLAENGHHLWQTFFLHCPMETVAPLDVQVDVVLAFMVAVAQSNAQQGPLEGILAR | soluble |
| MGSDKIHHHHHHLFAIRDEHLALDIVQDSMMKLVEKYSAKPLEELPLLFQRILQNTIRDFYRRQKTRSLWTTLFSAFIPSDHEKESEDFDLLETLQSDPSSSKVNDPHQQLEQSQLINLLERAIETLPARQREAFLLRYWEEMDVMETAKIMGCSEGSVKTHCSRATHTLAAMLKKHGIGL | not soluble |
| MTKHPPNRRGISFEVGAQLEARDRLKNWYPAHIEDIDYEEGKVLIHFKRWNHRYDEWFCWDSPYLRPLEKIQLRKEGLHEEDGSSEFQINEQVLACWSDCRFYPAKVTAVNKDGTYTVKFYDGVVQTVKHIHVKAFSKDQNIVGNARPKETDHKSLSSSPDKREKFKEQRKATVNVKKDKEDKPLKTEKRPKQPDKEGKLICSEKGKVSEKSLPKNEKEDKENISENDREYSGDAQKKTSQTPFHSSYCCGFKLSNFATQLEHHHHHH | soluble |
| MNIQHNLNLIQQKIETACKEENRNQNTVKLLAVSKTKPISAILSAYQAGQTAFGENYVQEGVEKIQYFESQGINLEWHFIGPLQSNKTRLVAEHFDWMQTLDRAKIADRLNEQRPTNKAPLNVLIQINISDEESKSGIQPEEMLTLAKHIENLPHLCLRGLMAIPAPTDNIAEQENAFRKMLELFEQLKQVLPNQQIDTLSMGMTDDMPSAIKCGSTMVRIGTAIFGARNYSTSQNK | not soluble |
| MGTITGEFTEHSAEAIAAMLSYIVQTEYEKKQLAKDTLQKYEEVVFLSQFANAVATCTGLQELIEVIRAEIRQVISVDEIFLYLYDQSQDSLTPLLYKTEESLQNFKAIEKIVERVLKLNQVEVIDDIQNDQDYLNQPSKIRSLLCYSLTVQNSIIGVLGLAHYQVKHFDSSDLNLFSTLTGQVAAAIRTAQYYETIKNYSQTLEIRLEHHHHHH | not soluble |
| MRMTLAVHTRQYSIHSFNPSAPIPSKVFAEEVYFICKTEEGLTLVVSSELALDSLEQETNWSCLEVLGPLGFSLTGILSKIASTLADVQISIFALSSFDTDYILVKKDCLQNAMTALKKAGYKIIESKLEHHHHHH | not soluble |
| MGSDKIHHHHHHMANYPGIDTELLRTFVAIADHGGFTRAGEVVNRTQSAVSMQMKRLEEDVVQRQLFQREGRTLNLTAEGQVLLGYARRILKLHSEVFNTLREPHMVGVVKIGSPDDYVMRFLPGILSQFAQAYPLVQVEVHCEPSDLLLQRQDLDLTIVTRKPGTEIGTLLRHERLVWMEAIGFAPHEQKPMPLAMFNTHCFCRDWACNALDSVEREYRIAYTSSSMAAITAVVSAGLAVTAQFQSLATPELRILGDAEHLPHLPTASIVLLRNPKTPSPITECMADYIIDGFKP | not soluble |
| MGSDKIHHHHHHMATIKDIAARLGVSISTVSKGLNGASDISEELRQTVLDTAVEMGYSTKRSRKVENRKLALFIENMNYESIDEFGYDVVLGFKQNAFKHKWDVDIIPVTPQLQAEEKYDTYILKNGYCGAFLVGFALHDEWMQQLKNTTMPTVLFDNYIENNPNVAYVGTDSYEGIDMAVKHLHNLGHKKIAFINGSLFSLVSDQRQEAFENSMRDAGLEIYPELMGHGYYIPETAQYYVSNFIAAGATAILCGSDTIAKGVISECQLHGFNVPNDISVVGFDDVKFAAALTPPLTTIRQERNDLGRCAYIILNSLIHHIPISRTQLRPMLIERESTARVSTAHAAEE | not soluble |
| ESYWRSRMIDAVTSDEDKVAPVYKLEEICDLLRSSHVSIVKEFSEFILKRLDNKSPIVKQKALRLIKYAVGKSGSEFRREMQRNSVAVRNLFHYKGHPDPLKGDALNKAVRETAHETISAIFSEENG | soluble |
| MGSDKIHHHHHHMKAYYHLPGLFEFYELYKEFLPLYRKHREYFYDWCDIGSIYGAPADCIWGGGRVGFGEHDLKEVLKLMQEYGISARLTFSNSLLTKEHLPDKKCNELCRIFDIGRDNERSRGFGNGIIIYSDILLDYIKENYPDFYFVSSTTKVLTDFSEFKNELNREEFRYVVPDFRLNKSFDNLKALSQHQKEKVEFLCNECCWFGCTDRKKCYETVSRKNLGVDCPEHYCVAPDSGQGYLFSKAMENPGFIGVYDIKNTYLPMGFSNFKIEGRGLGSAMILEFLLYYMTKPQYQIHVREHIYLDNMLDLF | not soluble |
| MSPGSVVVTGANRGIGLGLVQQLVKDKNIRHIIATARDVEKATELKSIKDSRVHVLPLTVTCDKSLDTFVSKVGEIVGSDGLSLLINNAGVLLSYGTNTEPNRAVIAEQLDVNTTSVVLLTQKLLPLLKNAASKESGDQLSVSRAAVITISSGLGSITDNTSGSAQFPVLAYRMSKAAINMFGRTLAVDLKDDNVLVVNFCPGWVQTNLGGKNAALTVEQSTAELISSFNKLDNSHNGRFFMRNLKPYEF | soluble |
| GGSVKKGRRSRRCGQCPGCQVPEDCGVCTNCLDKPKFGGRNIKKQCCKMRKCQNLQWMPSKAYLQKQAKAVK | soluble |
| SAEGDYYTLGNRQRIPRDPFREQSLASRFMDDDFGLPPFPNELSMDWPGWARPRLSHRLDAPWTGSLRSGFPRASMSSPQGFSSVYTESPRRASAPPTDSDEPWKVCVNVHSFKPEELNVKTKDGFVEVSGKHEEKQDEGGIVTKNFTKKIQIPLDVDPVTVFASLSPEGVLIIEARQTPPYYLYSNEMPAESMEEPEARPQEPSMTSTTTFEARE | soluble |
| MEKIKYGFGEIEAAASDIQSTSGRINSLLEDLKAHIRPMAAAWEGESAQAYNEAQQQWDSSAAELNTILSTISNTVRQGNDRMSEVNRMAAASWS | not soluble |
